Measurements from the supplement of paper PMC10567573.

B1: STK38L (parent)
chain: NWKETLVFPPEVPISEKAKDLILR

Variants of: B1
Experiment: protein stability index of a GFP-peptide fusion (GPS, HEK-293T) (PSI 1-6); higher = more stable
Conditions: c terminus: a fixed tail appended
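Also: lentivirally expressed fusions sorted by FACS into six bins by GFP to DsRed ratio, PSI derived from sequencing read proportions per bin multiplied by bin number.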

Variant	protein stability index
NWKETMVFPPEVPISEKAKDLILR [L6M]	3.31
NWKETVVFPPEVPISEKAKDLILR [L6V]	3.15
NWKETTVFPPEVPISEKAKDLILR [L6T]	3.46
NWKETPVFPPEVPISEKAKDLILR [L6P]	4.16
NWKETEVFPPEVPISEKAKDLILR [L6E]	3.66
NWKETRVFPPEVPISEKAKDLILR [L6R]	2.83
NWKETAVFPPEVPISEKAKDLILR [L6A]	4.04
NWKETNVFPPEVPISEKAKDLILR [L6N]	3.55
NWKETQVFPPEVPISEKAKDLILR [L6Q]	3.87
NWKETFVFPPEVPISEKAKDLILR [L6F]	3.31
NWKETKVFPPEVPISEKAKDLILR [L6K]	3.53
NWKETIVFPPEVPISEKAKDLILR [L6I]	2.86
NWKETGVFPPEVPISEKAKDLILR [L6G]	1.5
NWKETSVFPPEVPISEKAKDLILR [L6S]	3.62
NWKETCVFPPEVPISEKAKDLILR [L6C]	3
NWKETWVFPPEVPISEKAKDLILR [L6W]	2.74
NWKETDVFPPEVPISEKAKDLILR [L6D]	3.93
NWKETYVFPPEVPISEKAKDLILR [L6Y]	3.39
NWKETHVFPPEVPISEKAKDLILR [L6H]	2.61
NWKETLVFPAEVPISEKAKDLILR [P10A]	2.65
NWKETLVFPWEVPISEKAKDLILR [P10W]	1.78
NWKETLVFPCEVPISEKAKDLILR [P10C]	2.81
NWKETLVFPQEVPISEKAKDLILR [P10Q]	3.3
NWKETLVFPKEVPISEKAKDLILR [P10K]	3.03

Variant	protein stability index
NWKETLVFPGEVPISEKAKDLILR [P10G]	2.49
NWKETLVFPTEVPISEKAKDLILR [P10T]	3.35
NWKETLVFPSEVPISEKAKDLILR [P10S]	2.6
NWKETLVFPYEVPISEKAKDLILR [P10Y]	2.48
NWKETLVFPFEVPISEKAKDLILR [P10F]	1.8
NWKETLVFPVEVPISEKAKDLILR [P10V]	3.02
NWKETLVFPIEVPISEKAKDLILR [P10I]	2.14
NWKETLVFPHEVPISEKAKDLILR [P10H]	3.03
NWKETLVFPLEVPISEKAKDLILR [P10L]	2.81
NWKETLVFPDEVPISEKAKDLILR [P10D]	3.43
NWKETLVFPMEVPISEKAKDLILR [P10M]	2.8
NWKETLVAPPEVPISEKAKDLILR [F8A]	4.08
NWKETLVEPPEVPISEKAKDLILR [F8E]	3.98
NWKETLVVPPEVPISEKAKDLILR [F8V]	3.75
NWKETLVHPPEVPISEKAKDLILR [F8H]	3.33
NWKETLVSPPEVPISEKAKDLILR [F8S]	3.73
NWKETLVMPPEVPISEKAKDLILR [F8M]	3.78
NWKETLVTPPEVPISEKAKDLILR [F8T]	3.58
NWKETLVWPPEVPISEKAKDLILR [F8W]	3.5
NWKETLVKPPEVPISEKAKDLILR [F8K]	4.21
NWKETLVGPPEVPISEKAKDLILR [F8G]	3.02
NWKETLVDPPEVPISEKAKDLILR [F8D]	3.9
NWKETLVIPPEVPISEKAKDLILR [F8I]	3.43
NWKETLVQPPEVPISEKAKDLILR [F8Q]	3.53

Variant	protein stability index
NWKETLVCPPEVPISEKAKDLILR [F8C]	4.02
NWKETLVNPPEVPISEKAKDLILR [F8N]	3.1
NWKETLVLPPEVPISEKAKDLILR [F8L]	2.94
NWKETLVFPPEWPISEKAKDLILR [V12W]	3.95
NWKETLVFPPEFPISEKAKDLILR [V12F]	3.05
NWKETLVFPPEQPISEKAKDLILR [V12Q]	2.89
NWKETLVFPPESPISEKAKDLILR [V12S]	3.86
NWKETLVFPPEMPISEKAKDLILR [V12M]	3.15
NWKETLVFPPEYPISEKAKDLILR [V12Y]	2.62
NWKETLVFPPEIPISEKAKDLILR [V12I]	3.52
NWKETLVFPPEHPISEKAKDLILR [V12H]	2.72
NWKETLVFPPERPISEKAKDLILR [V12R]	3.92
NWKETLVFPPEEPISEKAKDLILR [V12E]	3.72
NWKETLVFPPELPISEKAKDLILR [V12L]	2.67
NWKETLVFPPECPISEKAKDLILR [V12C]	2.73
NWKETLVFPPENPISEKAKDLILR [V12N]	3.26
NWKETLVFPPEGPISEKAKDLILR [V12G]	2.92
NWKETLVFPPEKPISEKAKDLILR [V12K]	3.76
NWKETLVFPPETPISEKAKDLILR [V12T]	2.97
NWKETLVFPPEPPISEKAKDLILR [V12P]	3.48
NWKETLVFPPEDPISEKAKDLILR [V12D]	3.55
NWKETLYFPPEVPISEKAKDLILR [V7Y]	2.9
NWKETLCFPPEVPISEKAKDLILR [V7C]	3.35
NWKETLLFPPEVPISEKAKDLILR [V7L]	3.65

Variant	protein stability index
NWKETLQFPPEVPISEKAKDLILR [V7Q]	3.95
NWKETLKFPPEVPISEKAKDLILR [V7K]	2.95
NWKETLDFPPEVPISEKAKDLILR [V7D]	3.81
NWKETLNFPPEVPISEKAKDLILR [V7N]	3.63
NWKETLHFPPEVPISEKAKDLILR [V7H]	3.27
NWKETLFFPPEVPISEKAKDLILR [V7F]	2.63
NWKETLAFPPEVPISEKAKDLILR [V7A]	3.52
NWKETLWFPPEVPISEKAKDLILR [V7W]	4.68
NWKETLRFPPEVPISEKAKDLILR [V7R]	2.72
NWKETLEFPPEVPISEKAKDLILR [V7E]	3.53
NWKETLSFPPEVPISEKAKDLILR [V7S]	2.54
NWKETLIFPPEVPISEKAKDLILR [V7I]	3.09
NWKETLPFPPEVPISEKAKDLILR [V7P]	4.19
NWKETLGFPPEVPISEKAKDLILR [V7G]	4.56
NWKETLTFPPEVPISEKAKDLILR [V7T]	3.33
NWKETLMFPPEVPISEKAKDLILR [V7M]	2.94
NWQETLVFPPEVPISEKAKDLILR [K3Q]	3.77
NWVETLVFPPEVPISEKAKDLILR [K3V]	2.53
NWWETLVFPPEVPISEKAKDLILR [K3W]	2.07
NWTETLVFPPEVPISEKAKDLILR [K3T]	3.23
NWSETLVFPPEVPISEKAKDLILR [K3S]	3.17
NWPETLVFPPEVPISEKAKDLILR [K3P]	3.71
NWRETLVFPPEVPISEKAKDLILR [K3R]	3.12
NWYETLVFPPEVPISEKAKDLILR [K3Y]	2.18

Variant	protein stability index
NWKEILVFPPEVPISEKAKDLILR [T5I]	2.53
NWKERLVFPPEVPISEKAKDLILR [T5R]	3.12
NWKENLVFPPEVPISEKAKDLILR [T5N]	3.36
NWKEALVFPPEVPISEKAKDLILR [T5A]	3.27
NWKELLVFPPEVPISEKAKDLILR [T5L]	2.09
NWKEYLVFPPEVPISEKAKDLILR [T5Y]	2.62
NWKEQLVFPPEVPISEKAKDLILR [T5Q]	4.08
NWKEMLVFPPEVPISEKAKDLILR [T5M]	2.75
NWKEVLVFPPEVPISEKAKDLILR [T5V]	2.61
NWKEELVFPPEVPISEKAKDLILR [T5E]	2.36
NWKEHLVFPPEVPISEKAKDLILR [T5H]	3.2
NWKECLVFPPEVPISEKAKDLILR [T5C]	2.44
NWKEPLVFPPEVPISEKAKDLILR [T5P]	3.42
NWKEDLVFPPEVPISEKAKDLILR [T5D]	3.65
NWKEWLVFPPEVPISEKAKDLILR [T5W]	2.05
NWKEKLVFPPEVPISEKAKDLILR [T5K]	2.48
NWKESLVFPPEVPISEKAKDLILR [T5S]	2.87
NWKETLVFPPNVPISEKAKDLILR [E11N]	2.69
NWKETLVFPPAVPISEKAKDLILR [E11A]	2.87
NWKETLVFPPHVPISEKAKDLILR [E11H]	2.81
NWKETLVFPPYVPISEKAKDLILR [E11Y]	2.21
NWKETLVFPPCVPISEKAKDLILR [E11C]	2.89
NWKETLVFPPWVPISEKAKDLILR [E11W]	2.63
NWKETLVFPPDVPISEKAKDLILR [E11D]	3.15

Variant	protein stability index
NWKETLVFPPVVPISEKAKDLILR [E11V]	3.03
NWKETLVFPPMVPISEKAKDLILR [E11M]	2.39
NWKETLVFPPLVPISEKAKDLILR [E11L]	3.58
NWKETLVFPPQVPISEKAKDLILR [E11Q]	3.36
NWKETLVFPPSVPISEKAKDLILR [E11S]	2.3
NWKETLVFPPGVPISEKAKDLILR [E11G]	2.65
NWKETLVFPPFVPISEKAKDLILR [E11F]	1.92
NWKETLVFPPRVPISEKAKDLILR [E11R]	2.87
NWKETLVFPPTVPISEKAKDLILR [E11T]	2.68
NWKETLVFPPIVPISEKAKDLILR [E11I]	2.52
NWKSTLVFPPEVPISEKAKDLILR [E4S]	2.32
NWKDTLVFPPEVPISEKAKDLILR [E4D]	3.01
NWKNTLVFPPEVPISEKAKDLILR [E4N]	1.76
NWKTTLVFPPEVPISEKAKDLILR [E4T]	2.57
NWKWTLVFPPEVPISEKAKDLILR [E4W]	1.78
NWKFTLVFPPEVPISEKAKDLILR [E4F]	2.29
NWKGTLVFPPEVPISEKAKDLILR [E4G]	2.31
NWKVTLVFPPEVPISEKAKDLILR [E4V]	2.38
NWKYTLVFPPEVPISEKAKDLILR [E4Y]	1.32
NWKATLVFPPEVPISEKAKDLILR [E4A]	2.1
NWKRTLVFPPEVPISEKAKDLILR [E4R]	1.97
NWKMTLVFPPEVPISEKAKDLILR [E4M]	2.58
NWKCTLVFPPEVPISEKAKDLILR [E4C]	2.16
NWKITLVFPPEVPISEKAKDLILR [E4I]	1.69

Variant	protein stability index
NWKPTLVFPPEVPISEKAKDLILR [E4P]	2.85
NWKHTLVFPPEVPISEKAKDLILR [E4H]	2.82
NWKKTLVFPPEVPISEKAKDLILR [E4K]	2.47
NWKQTLVFPPEVPISEKAKDLILR [E4Q]	2.62
NWKETLVFPPEVPESEKAKDLILR [I14E]	3.53
NWKETLVFPPEVPASEKAKDLILR [I14A]	3.44
NWKETLVFPPEVPFSEKAKDLILR [I14F]	2.32
NWKETLVFPPEVPDSEKAKDLILR [I14D]	4.44
NWKETLVFPPEVPCSEKAKDLILR [I14C]	3.19
NWKETLVFPPEVPHSEKAKDLILR [I14H]	2.84
NWKETLVFSPEVPISEKAKDLILR [P9S]	3.06
NWKETLVFIPEVPISEKAKDLILR [P9I]	2.75
NWKETLVFLPEVPISEKAKDLILR [P9L]	2.32
NWKETLVFNPEVPISEKAKDLILR [P9N]	2.78
NWKETLVFEPEVPISEKAKDLILR [P9E]	2.75
NWKETLVFVPEVPISEKAKDLILR [P9V]	2.52
NWKETLVFQPEVPISEKAKDLILR [P9Q]	4.18
NWKETLVFKPEVPISEKAKDLILR [P9K]	2.68
NWKETLVFCPEVPISEKAKDLILR [P9C]	2.27
NWKETLVFAPEVPISEKAKDLILR [P9A]	2.69
NWKETLVFHPEVPISEKAKDLILR [P9H]	2.57
NWKETLVFMPEVPISEKAKDLILR [P9M]	2.05
NWKETLVFTPEVPISEKAKDLILR [P9T]	2.9
NWKETLVFYPEVPISEKAKDLILR [P9Y]	1.96

Variant	protein stability index
NWKETLVFGPEVPISEKAKDLILR [P9G]	1.93
NWKETLVFRPEVPISEKAKDLILR [P9R]	2.93
NWKETLVFDPEVPISEKAKDLILR [P9D]	2.77
NWKETLVFWPEVPISEKAKDLILR [P9W]	1.56
NWKETLVFFPEVPISEKAKDLILR [P9F]	2.34
NWKETLVFPPEVGISEKAKDLILR [P13G]	3.1
NWKETLVFPPEVLISEKAKDLILR [P13L]	2.42
NWKETLVFPPEVTISEKAKDLILR [P13T]	2.44
NWKETLVFPPEVFISEKAKDLILR [P13F]	2.35
NWKETLVFPPEVDISEKAKDLILR [P13D]	3.4
NWKETLVFPPEVSISEKAKDLILR [P13S]	3.92
NWKETLVFPPEVNISEKAKDLILR [P13N]	3.27
NWKETLVFPPEVEISEKAKDLILR [P13E]	3.1
NWKETLVFPPEVHISEKAKDLILR [P13H]	2.9
NWKETLVFPPEVVISEKAKDLILR [P13V]	3.67
NWKETLVFPPEVRISEKAKDLILR [P13R]	2.57
NWKETLVFPPEVYISEKAKDLILR [P13Y]	1.97
NWKETLVFPPEVMISEKAKDLILR [P13M]	2.36
NWKETLVFPPEVKISEKAKDLILR [P13K]	2.46
NWKETLVFPPEVCISEKAKDLILR [P13C]	2.37
